Experimental data reported in patent US5861155.
“And” between values parts separate entries of the source, which are not always exact repeats. Equal entries are not always repeated.

What was measured:
[1] = biological target: human T cell receptor with β chain variable region Vβ 5.2, on HPB-ALL cells (human); assay: flow cytometry on HPB cells, TM27 purified from CHO cells
[2] = biological target: human T cell receptor with β chain variable region Vβ 5.2, on HPB-ALL cells (human); assay: flow cytometry on HPB cells, TM27 purified from NSO cells
[3] = biological target: human T cell receptor with β chain variable region Vβ 5.2, on HPB-ALL cells (human); assay: 4H11-FITC competition assay, competitor label 4H11-FITC (cells not stated in the example)

B1: TM27 (antibody, V domains shown)
VH: QVQLQESGPGLVRPSQTLSLTCTVSGFSLTAYGVNWVRQPPGRGLEWLGMIWGDGNTDYNSALKSRVTMLKDTSKNQFSLRLSSVTAADTAVYYCARDRVTATLYAMDYWGQGSLVTVSS
VL: DIQMTQSPSSLSASVGDRVTITCSASQGISNYLNWYQQTPGKAPKLLIYYTSSLHSGVPSRFSGSGSGTDYTFTISSLQPEDIATYYCQQYSKLPRTFGQGTKLQIT
mean channel fluorescence [1]: 283 and 322 | mean channel fluorescence [2]: 507 | value in the 4H11-FITC competition assay, fold against TM23 [3]: < 3 fold

B2: TM27I (antibody, V domains shown)
VH: QVQLQESGPGLVRPSQTLSLTCTVSGFSLTAYGVNWVRQPPGRGLEWIGMIWGDGNTDYNSALKSRVTMLKDTSKNQFSLRLSSVTAADTAVYYCARDRVTATLYAMDYWGQGSLVTVSS
VL: DIQMTQSPSSLSASVGDRVTITCSASQGISNYLNWYQQTPGKAPKLLIYYTSSLHSGVPSRFSGSGSGTDYTFTISSLQPEDIATYYCQQYSKLPRTFGQGTKLQIT
value in the 4H11-FITC competition assay, fold against TM23 [3]: < 3 fold
